Holding throughout (assay): cell-based or functional assay
Assay [1] deals with SARS-CoV-2 D614G spike protein (SARS-CoV-2) (UniProt P0DTC2).
For assay [2], the target named is SARS-CoV-2 BA.4/5+K444T Spike on pseudovirus (SARS-CoV-2) (UniProt P0DTC2).
Assay [3] has as its target SARS-CoV-2 BA.1.1 + P1162S spike protein (SARS-CoV-2).
In assay [4] the target is SARS-CoV-2 BA.5.8 + P1162L spike protein (SARS-CoV-2).
Assay [5] concerns the target SARS-CoV-2 D614G spike protein (SARS-CoV-2) (UniProt P0DTC2). This is another data set of the same source.
For assay [6] the target is unchanged. This is another data set of the same source.
For assay [7] the target is unchanged. This is another data set of the same source.
Assay [8] shares this target. The source holds these as a separate data set.

Read-outs that look alike come from different tables or passages of the source.

The record followed here is patent publication US20240360203A1.

In assay [1], Sotrovimab VH/VL-hamIgG2a (antibody) registered a pseudovirus neutralization EC50, Vero E6 of 8.51 ng/mL.
Regarding “Sotrovimab VH/VL (human IgG1 molecule expressing the same variable regions of Sotrovimab) (antibody)”, the IC50, pseudovirus neutralization in assay [2] was 304 ng/mL.
For Sotrovimab VH/VL-huIgG1 (antibody), the pseudovirus neutralization EC50, Vero E6 in assay [1] is 27.9 ng/mL.
As to Bebtelovimab (antibody), in assay [3], the pseudovirus neutralization EC50 turned out to be 0.12 ng/mL, the pseudovirus neutralization EC80 was determined as 1.4 ng/mL, the pseudovirus neutralization EC90 came to 6 ng/mL and the pseudovirus neutralization Emax (% neutralization) was found to be 100. Further, in assay [4], the pseudovirus neutralization EC50 was 0.13 ng/mL, the pseudovirus neutralization EC80 came to 1.1 ng/mL, the pseudovirus neutralization EC90 stood at 3.7 ng/mL and the pseudovirus neutralization Emax (% neutralization) stood at 99.9. Further, in assay [1], the pseudovirus neutralization EC50 came out at 0.57 ng/mL; the pseudovirus neutralization EC50, TMPRSS2-Vero E6 (bebtelovimab + isotype) worked out at 1.7 ng/mL; the pseudovirus neutralization EC50, Vero E6 (bebtelovimab + isotype) was 0.64 ng/mL; the pseudovirus neutralization EC80 turned out to be 4.9 ng/mL. Besides, in assay [1], the pseudovirus neutralization EC80, TMPRSS2-Vero E6 (bebtelovimab + isotype) worked out at 11 ng/mL; the pseudovirus neutralization EC80, Vero E6 (bebtelovimab + isotype) was found to be 2.7 ng/mL; the pseudovirus neutralization EC90 came out at 18 ng/mL; the pseudovirus neutralization EC90, TMPRSS2-Vero E6 (bebtelovimab + isotype) is 32 ng/mL. In assay [1], the pseudovirus neutralization EC90, Vero E6 (bebtelovimab + isotype) came to 6.1 ng/mL; the pseudovirus neutralization Emax (% neutralization) worked out at 99.9; the pseudovirus neutralization Emax, TMPRSS2-Vero E6 (bebtelovimab + isotype) (% neutralization) came out at 99.4; the pseudovirus neutralization Emax, Vero E6 (bebtelovimab + isotype) (% neutralization) turned out to be 99.4. For the same substance, the IC50, pseudovirus neutralization in assay [2] was found to be 1220 ng/mL. The pseudovirus neutralization EC50, Vero E6 (bebtelovimab + isotype) in assay [5] was 0.29 ng/mL. Moreover, in assay [6], the pseudovirus neutralization EC80, Vero E6 (bebtelovimab + isotype) amounted to 2.9 ng/mL. The pseudovirus neutralization EC90, Vero E6 (bebtelovimab + isotype) in assay [7] was found to be 11 ng/mL. In assay [8], the pseudovirus neutralization Emax, Vero E6 (bebtelovimab + isotype) (% neutralization) was 99.7.
On to Sotrovimab VH/VL-huIgG1-LS (antibody), for which the pseudovirus neutralization EC50, Vero E6 in assay [1] came out at 35.2 ng/mL. Besides, the pseudovirus neutralization EC50, Vero E6 (sotrovimab VH/VL-huIgG1-LS + isotype) in assay [5] worked out at 14 ng/mL. The pseudovirus neutralization EC80, Vero E6 (sotrovimab VH/VL-huIgG1-LS + isotype) in assay [6] worked out at 69 ng/mL. The pseudovirus neutralization EC90, Vero E6 (sotrovimab VH/VL-huIgG1-LS + isotype) in assay [7] stood at 170 ng/mL. Also, the pseudovirus neutralization Emax, Vero E6 (sotrovimab VH/VL-huIgG1-LS + isotype) (% neutralization) in assay [8] is 98.3.
